# Laboratory results published in US8242078B2, “Therapeutics to inhibit MLL-menin interaction for treating leukemia” (The University of Chicago, priority 2006, dated 2012).
# “Also recorded” adds a separate entry of the source. Peptide text beside a SMILES is read from it.
# System: normal human CD34+ cells
# Test: Erythroid differentiation of normal human CD34+ cells, day 10
# Assay type: cell-based
# Conditions: 7.5 μm or 10 μm
# Procedure: (§1) To assess the effects of TAT-MLL peptide on hematopoiesis, normal human CD34^+ cells were incubated with either the TAT-MLL peptide or the TAT-scrambled peptide at a concentration of either 7.5 μm or 10 μm. There was no effect of either the TAT-MLL peptide or the TAT-scrambled peptide on myeloid or erythroid differentiation. […] CD14-PE, CD15-FITC, CD71-FITC and GlyA (CD235a)-PE antibodies were obtained from Becton Dickinson
row,Compound,effect on erythroid differentiation (in words)
1,"C[C@H](NC(=O)[C@@H]1CCCN1C(=O)[C@H](Cc1ccccc1)NC(=O)[C@H](CCCNC(=N)N)NC(=O)[C@H](Cc1c[nH]c2ccccc12)NC(=O)[C@H](CCCNC(=N)N)NC(=O)[C@H](CS)NC(=O)CNC(=O)CNC(=O)[C@H](CCCNC(=N)N)NC(=O)[C@H](CCCNC(=N)N)NC(=O)[C@H](CCCNC(=N)N)NC(=O)[C@H](CCC(N)=O)NC(=O)[C@H](CCCNC(=N)N)NC(=O)[C@H](CCCNC(=N)N)NC(=O)[C@H](CCCCN)NC(=O)[C@H](CCCCN)NC(=O)[C@@H](N)CCCNC(=N)N)C(=O)N[C@@H](CCCNC(=N)N)C(=O)N1CCC[C@H]1C(=O)NCC(=O)O [TAT-MLL, RKKRRQRRR-GG-CRWRFPARPG (SEQ ID NO: 15)] (H-RKKRRQRRRGGCRWRFPARPG-OH)",no effect
2,"C[C@H](NC(=O)[C@H](CCCNC(=N)N)NC(=O)CNC(=O)CNC(=O)[C@H](CCCNC(=N)N)NC(=O)[C@H](CCCNC(=N)N)NC(=O)[C@H](CCCNC(=N)N)NC(=O)[C@H](CCC(N)=O)NC(=O)[C@H](CCCNC(=N)N)NC(=O)[C@H](CCCNC(=N)N)NC(=O)[C@H](CCCCN)NC(=O)[C@H](CCCCN)NC(=O)[C@@H](N)CCCNC(=N)N)C(=O)N[C@@H](Cc1ccccc1)C(=O)N[C@@H](CCCNC(=N)N)C(=O)N1CCC[C@H]1C(=O)N[C@@H](CS)C(=O)N1CCC[C@H]1C(=O)N[C@@H](CCCNC(=N)N)C(=O)N[C@@H](Cc1c[nH]c2ccccc12)C(=O)NCC(=O)O [TAT-scrambled, RKKRRQRRR-GG-RAFRPCPRWG (SEQ ID NO: 18), reference compound] (H-RKKRRQRRRGGRAFRPCPRWG-OH)",no effect

# System: normal human CD34+ cells
# Test: Myeloid differentiation of normal human CD34+ cells, day 10
# Assay type: cell-based
# Conditions: 7.5 μm or 10 μm
# Procedure: as §1
row,Compound,effect on myeloid differentiation (in words)
1,"C[C@H](NC(=O)[C@@H]1CCCN1C(=O)[C@H](Cc1ccccc1)NC(=O)[C@H](CCCNC(=N)N)NC(=O)[C@H](Cc1c[nH]c2ccccc12)NC(=O)[C@H](CCCNC(=N)N)NC(=O)[C@H](CS)NC(=O)CNC(=O)CNC(=O)[C@H](CCCNC(=N)N)NC(=O)[C@H](CCCNC(=N)N)NC(=O)[C@H](CCCNC(=N)N)NC(=O)[C@H](CCC(N)=O)NC(=O)[C@H](CCCNC(=N)N)NC(=O)[C@H](CCCNC(=N)N)NC(=O)[C@H](CCCCN)NC(=O)[C@H](CCCCN)NC(=O)[C@@H](N)CCCNC(=N)N)C(=O)N[C@@H](CCCNC(=N)N)C(=O)N1CCC[C@H]1C(=O)NCC(=O)O [TAT-MLL, RKKRRQRRR-GG-CRWRFPARPG (SEQ ID NO: 15)] (H-RKKRRQRRRGGCRWRFPARPG-OH)",no effect
2,"C[C@H](NC(=O)[C@H](CCCNC(=N)N)NC(=O)CNC(=O)CNC(=O)[C@H](CCCNC(=N)N)NC(=O)[C@H](CCCNC(=N)N)NC(=O)[C@H](CCCNC(=N)N)NC(=O)[C@H](CCC(N)=O)NC(=O)[C@H](CCCNC(=N)N)NC(=O)[C@H](CCCNC(=N)N)NC(=O)[C@H](CCCCN)NC(=O)[C@H](CCCCN)NC(=O)[C@@H](N)CCCNC(=N)N)C(=O)N[C@@H](Cc1ccccc1)C(=O)N[C@@H](CCCNC(=N)N)C(=O)N1CCC[C@H]1C(=O)N[C@@H](CS)C(=O)N1CCC[C@H]1C(=O)N[C@@H](CCCNC(=N)N)C(=O)N[C@@H](Cc1c[nH]c2ccccc12)C(=O)NCC(=O)O [TAT-scrambled, RKKRRQRRR-GG-RAFRPCPRWG (SEQ ID NO: 18), reference compound] (H-RKKRRQRRRGGRAFRPCPRWG-OH)",no effect

# Molecular target: T1, interaction of transfected MLL with endogenous menin (Homo sapiens, UniProt O00255)
# T1 construct: endogenous in cells; host or cells: 293 cells (lysate; cells transfected with FLAG-MLL 1-330)
# T1 sequence (O00255 1-610): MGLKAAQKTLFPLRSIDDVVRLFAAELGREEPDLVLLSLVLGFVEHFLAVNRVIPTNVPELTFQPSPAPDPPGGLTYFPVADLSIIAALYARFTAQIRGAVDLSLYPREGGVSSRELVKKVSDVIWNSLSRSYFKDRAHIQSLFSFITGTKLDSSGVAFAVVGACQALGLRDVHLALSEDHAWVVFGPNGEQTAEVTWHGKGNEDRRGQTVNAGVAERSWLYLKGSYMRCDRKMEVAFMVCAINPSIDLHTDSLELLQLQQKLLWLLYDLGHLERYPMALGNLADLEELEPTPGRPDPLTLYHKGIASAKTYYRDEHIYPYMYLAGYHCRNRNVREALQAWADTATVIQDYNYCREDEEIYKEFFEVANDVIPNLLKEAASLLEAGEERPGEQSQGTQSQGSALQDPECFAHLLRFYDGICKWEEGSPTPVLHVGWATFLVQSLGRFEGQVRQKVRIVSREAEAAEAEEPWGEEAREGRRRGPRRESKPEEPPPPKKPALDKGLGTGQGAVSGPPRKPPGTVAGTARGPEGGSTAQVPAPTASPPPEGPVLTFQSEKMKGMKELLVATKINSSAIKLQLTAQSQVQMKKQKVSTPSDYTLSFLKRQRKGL
# Test: Disruption of binding of transfected FLAG-tagged MLL 1-330 to endogenous menin (anti-FLAG immunoprecipitation, anti-menin Western blot)
# Conditions: each peptide tested at 10, 20, and 30 μM
# Procedure: To determine the precise domain that mediates the binding of MLL to menin, a series of peptides from the N-terminus of MLL were synthesized. To assess disruption of binding of transfected MLL to endogenous menin, a FLAG-tagged MLL 1-330 construct was transfected into 293 cells and the cell lysates were incubated with a series of peptides listed below or with water as a control. Cell lysates were immunoprecipitated with anti-FLAG antibody (Sigma), separated by SDS-PAGE and blotted with an anti-menin antibody (Bethyl Laboratories Inc, or Santa-Cruz). The amino acid numbers from the N-terminus of MLL are indicated below (preceding the amino acid sequence) for the peptides analyzed for their ability to disrupt the interaction of MLL and menin.
# Conditional inactivation of menin results in the reversal of the transforming properties of MLL fusion proteins. A high affinity menin binding domain has been localized to the N-terminal residues of MLL, and deletion of residues 6 through 10 of MLL prevents MLL-ELL from transforming hematopoietic progenitor cells. To target the MLL-menin interaction, a series of peptides were developed for the potential to block the interaction of menin with MLL. To establish the activity of these peptides, lysates of cells transfected with FLAG-tagged N-terminal MLL sequences were examined. The lysates were immunoprecipitated with a FLAG antibody, incubated with either an MLL peptide or a control scrambled peptide, and then blotted with an anti-menin antibody. […] To examine the activity of the TAT-MLL peptide, mouse and human leukemia cell lines were treated with the TAT-MLL peptide. […] (#TIB-202, American Type Culture Collection, Manassas, Va.).
row,Compound,"inhibition of the binding of transfected MLL 1-330 to endogenous menin (Western blot, FIG. 2)"
1,CRWRFPARPG (SEQ ID NO: 14) [MLL peptide 5-14],dose-dependent inhibition
2,"RKKRRQRRR-GG-MAHSCRWRFPARPGTTGG (SEQ ID NO: 17) (RKKRRQRRRGGMAHSCRWRFPARPGTTGG) [TAT-MLL 1-18, longer MLL peptide, residues 1-18, fused to TAT]",dose-dependent inhibition

# Same assay, conditions: lysates of 293 cells transfected with FLAG-tagged MLL 1-330, incubated with peptide; anti-FLAG IP, anti-menin blot
row,Compound,"block of the interaction of transfected MLL with endogenous menin (Western blot, FIG. 1)"
1,"AHSCRWRFPARPG (SEQ ID NO: 11) [MLL peptide 2-14, peptide from the N-terminus of MLL, amino acids 2-14]",block the interaction of transfected MLL with endogenous menin
2,"AHSCRWRFPARPGTTGG (SEQ ID NO: 7) [MLL peptide 2-18, peptide from the N-terminus of MLL, amino acids 2-18]",block the interaction of transfected MLL with endogenous menin
3,CRWRFPARPG (SEQ ID NO: 14) [MLL peptide 5-14],block the interaction of transfected MLL with endogenous menin; also recorded: sufficient to block interaction with endogenous menin
4,"CRWRFPARPGTTGG (SEQ ID NO: 10) [MLL peptide 5-18, peptide from the N-terminus of MLL, amino acids 5-18]",block the interaction of transfected MLL with endogenous menin
5,"HSCRWRFPARPG (SEQ ID NO: 12) [MLL peptide 3-14, peptide from the N-terminus of MLL, amino acids 3-14]",block the interaction of transfected MLL with endogenous menin
6,"HSCRWRFPARPGTTGG (SEQ ID NO: 8) [MLL peptide 3-18, peptide from the N-terminus of MLL, amino acids 3-18]",block the interaction of transfected MLL with endogenous menin
7,"MAHSCRWRFP (SEQ ID NO: 19) [MLL peptide 1-10, peptide from the N-terminus of MLL, amino acids 1-10]",do not block the interaction of MLL with menin
8,"MAHSCRWRFPA (SEQ ID NO: 20) [MLL peptide 1-11, peptide from the N-terminus of MLL, amino acids 1-11]",do not block the interaction of MLL with menin
9,"MAHSCRWRFPAR (SEQ ID NO: 21) [MLL peptide 1-12, peptide from the N-terminus of MLL, amino acids 1-12]",do not block the interaction of MLL with menin
10,"MAHSCRWRFPARP (SEQ ID NO: 1) [MLL peptide 1-13, peptide from the N-terminus of MLL, amino acids 1-13]",block the interaction of transfected MLL with endogenous menin
11,"MAHSCRWRFPARPG (SEQ ID NO: 2) [MLL peptide 1-14, peptide from the N-terminus of MLL, amino acids 1-14]",block the interaction of transfected MLL with endogenous menin
12,"MAHSCRWRFPARPGTTGG (SEQ ID NO: 3) [MLL peptide 1-18, peptide from the N-terminus of MLL, amino acids 1-18]",block the interaction of transfected MLL with endogenous menin
13,"MAHSCRWRFPARPGTTGGGGGG (SEQ ID NO: 4) [MLL peptide 1-22, peptide from the N-terminus of MLL, amino acids 1-22]",block the interaction of transfected MLL with endogenous menin
14,"MAHSCRWRFPARPGTTGGGGGGGRRG (SEQ ID NO: 5) [MLL peptide 1-26, peptide from the N-terminus of MLL, amino acids 1-26]",block the interaction of transfected MLL with endogenous menin
15,"MAHSCRWRFPARPGTTGGGGGGGRRGLGGG (SEQ ID NO: 6) [MLL peptide 1-30, peptide from the N-terminus of MLL, amino acids 1-30]",block the interaction of transfected MLL with endogenous menin
16,"RFPARPGTTGG (SEQ ID NO: 24) [MLL peptide 8-18, peptide from the N-terminus of MLL, amino acids 8-18]",do not block the interaction of MLL with menin
17,"RWRFPARPG (SEQ ID NO: 25) [MLL peptide 6-14, peptide from the N-terminus of MLL, amino acids 6-14]",do not block the interaction of MLL with menin
18,"RWRFPARPGTTGG (SEQ ID NO: 22) [MLL peptide 6-18, peptide from the N-terminus of MLL, amino acids 6-18]",do not block the interaction of MLL with menin
19,"SCRWRFPARPG (SEQ ID NO: 13) [MLL peptide 4-14, peptide from the N-terminus of MLL, amino acids 4-14]",block the interaction of transfected MLL with endogenous menin
20,"SCRWRFPARPGTTGG (SEQ ID NO: 9) [MLL peptide 4-18, peptide from the N-terminus of MLL, amino acids 4-18]",block the interaction of transfected MLL with endogenous menin
21,"WRFPARPGTTGG (SEQ ID NO: 23) [MLL peptide 7-18, peptide from the N-terminus of MLL, amino acids 7-18]",do not block the interaction of MLL with menin
